{"source": "paper PMC1266349", "about": "“Nonnatural amino acid incorporation into the methionine 214 position of the metzincin Pseudomonas aeruginosa alkaline protease” (BMC Biochemistry, 2005)", "test_system": "N=C(N)NCCC[C@H](NC(=O)OCc1ccccc1)C(=O)N[C@@H](CCCNC(=N)N)C(=O)Nc1ccc([N+](=O)[O-])cc1", "assay": "purified protein", "details": "20 mM HEPES, 100 μg enzyme per assay; revised conditions, unlabelled recombinant protein"}
{"substance": "AprA (alkaline protease from Pseudomonas aeruginosa), mature full-length (Pseudomonas aeruginosa PAO1)", "values": [{"measurement": "Km", "value": "15.4 ± 0.9", "unit": "µM"}, {"measurement": "kcat", "value": "0.0095 ± 0.00033", "unit": "s⁻¹"}]}
